Assays:
[1] = target: T1, human programmed cell death protein 1 (hPD-1) C93S (aa 24-167) (Homo sapiens, UniProt Q15116, C93S); assay: SPR; Carterra LSA; Fab from the ammonium sulfate precipitate of the culture supernatant immobilised on a NiHC200M chip; hPD-1 (1-1024 nM) or mPD-1-Fc (4-1024 nM) as analyte, fourfold dilution series, no regeneration; HBS-EP pH 7.4, 25 °C; medians over the spots of a construct, KD = koff/kon; details: one partner purified
T1 construct: made as a fusion with a TEV site and human Fc; the Fc was cut off with TEV protease; source: Expi293F, purified (Protein A, TEV cleavage of Fc, SEC; monomer fractions); not shown: Fc (human), C-terminal, cleaved
Summary of the method: (§1)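 On a Carterra LSA at 25 °C, duplicate captures of Fabs were made on a NiHC200M chip; the Fabs came from Brevibacillus culture supernatants, were precipitated with ammonium sulfate and were redissolved in HBS-EP. Fourfold series of human PD-1 (1–1024 nM) or mouse PD-1-Fc (4–1024 nM) were passed over without regeneration, with 10 min association and 5 min dissociation. Binders that were not confirmed were assigned kon 10^3 […] and koff 10^−2 s^−1. The kdka model, run with slow- or fast-dissociation settings and keeping the better fit, gave the rates, and KD was taken as koff/kon from the median values for each construct.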

[2] = target: T2, mouse programmed cell death protein 1 Fc fusion protein (mPD-1-Fc), mPD-1 C60S (aa 25-167) (Mus musculus, UniProt Q02242, stabilised); assay: as above; details: one partner purified
T2 construct: not cleaved; source: Expi293F, purified (Protein A, SEC; dimeric fraction); not shown: Fc (human), C-terminal, kept
Summary of the method: as §1

T1 sequence (Q15116 24-167 C93S): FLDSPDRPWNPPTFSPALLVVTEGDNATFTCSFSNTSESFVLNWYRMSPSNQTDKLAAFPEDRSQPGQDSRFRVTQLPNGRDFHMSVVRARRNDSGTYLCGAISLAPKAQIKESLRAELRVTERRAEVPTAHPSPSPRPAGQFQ

B1: toripalimab Fab H.Y109A (Fab, V domains shown)
VH: QGQLVQSGAEVKKPGASVKVSCKASGYTFTDYEMHWVRQAPIHGLEWIGVIESETGGTAYNQKFKGRVTITADKSTSTAYMELSSLRSEDTAVYYCAREGITTVATTYAWYFDVWGQGTTVTVSS
VL: DVVMTQSPLSLPVTLGQPASISCRSSQSIVHSNGNTYLEWYLQKPGQSPQLLIYKVSNRFSGVPDRFSGSGSGTDFTLKISRVEAEDVGVYYCFQGSHVPLTFGQGTKLEIK
notes: heavy chain of Sm3 with this change; numbers count from the chain's first residue; as the light chain of Sm3; source: Brevibacillus, culture supernatant (ammonium sulfate precipitate); not shown: 6xHis, C-terminal, kept; 6xHN, C-terminal, kept
Kd [1]: 0.608 nM
koff [1]: 1.41e-05 s⁻¹
kon [1]: 23200 M⁻¹ s⁻¹
Kd [2]: 49.7 nM
koff [2]: 0.00179 s⁻¹
kon [2]: 36000 M⁻¹ s⁻¹

B2: toripalimab Fab H.W110Y (Fab, V domains shown)
VH: QGQLVQSGAEVKKPGASVKVSCKASGYTFTDYEMHWVRQAPIHGLEWIGVIESETGGTAYNQKFKGRVTITADKSTSTAYMELSSLRSEDTAVYYCAREGITTVATTYYYYFDVWGQGTTVTVSS
VL: DVVMTQSPLSLPVTLGQPASISCRSSQSIVHSNGNTYLEWYLQKPGQSPQLLIYKVSNRFSGVPDRFSGSGSGTDFTLKISRVEAEDVGVYYCFQGSHVPLTFGQGTKLEIK
notes: as for B1
Kd [1]: < 1.51 nM
koff [1]: < 1e-05 s⁻¹
kon [1]: 6610 M⁻¹ s⁻¹
Kd [2]: 166 nM
koff [2]: 0.00571 s⁻¹
kon [2]: 34500 M⁻¹ s⁻¹

B3: toripalimab Fab H.F112Y (Fab, V domains shown)
VH: QGQLVQSGAEVKKPGASVKVSCKASGYTFTDYEMHWVRQAPIHGLEWIGVIESETGGTAYNQKFKGRVTITADKSTSTAYMELSSLRSEDTAVYYCAREGITTVATTYYWYYDVWGQGTTVTVSS
VL: DVVMTQSPLSLPVTLGQPASISCRSSQSIVHSNGNTYLEWYLQKPGQSPQLLIYKVSNRFSGVPDRFSGSGSGTDFTLKISRVEAEDVGVYYCFQGSHVPLTFGQGTKLEIK
notes: as for B1
Kd [1]: < 0.731 nM
koff [1]: < 1e-05 s⁻¹
kon [1]: 13700 M⁻¹ s⁻¹
Kd [2]: 59.7 nM
koff [2]: 0.00308 s⁻¹
kon [2]: 51700 M⁻¹ s⁻¹

B4: toripalimab Fab H.M34A (Fab, V domains shown)
VH: QGQLVQSGAEVKKPGASVKVSCKASGYTFTDYEAHWVRQAPIHGLEWIGVIESETGGTAYNQKFKGRVTITADKSTSTAYMELSSLRSEDTAVYYCAREGITTVATTYYWYFDVWGQGTTVTVSS
VL: DVVMTQSPLSLPVTLGQPASISCRSSQSIVHSNGNTYLEWYLQKPGQSPQLLIYKVSNRFSGVPDRFSGSGSGTDFTLKISRVEAEDVGVYYCFQGSHVPLTFGQGTKLEIK
notes: as for B1
Kd [1]: 0.968 nM
koff [1]: 3.28e-05 s⁻¹
kon [1]: 33900 M⁻¹ s⁻¹
Kd [2]: 153 nM
koff [2]: 0.0068 s⁻¹
kon [2]: 44300 M⁻¹ s⁻¹

B5: toripalimab Fab H.V114A (Fab, V domains shown)
VH: QGQLVQSGAEVKKPGASVKVSCKASGYTFTDYEMHWVRQAPIHGLEWIGVIESETGGTAYNQKFKGRVTITADKSTSTAYMELSSLRSEDTAVYYCAREGITTVATTYYWYFDAWGQGTTVTVSS
VL: DVVMTQSPLSLPVTLGQPASISCRSSQSIVHSNGNTYLEWYLQKPGQSPQLLIYKVSNRFSGVPDRFSGSGSGTDFTLKISRVEAEDVGVYYCFQGSHVPLTFGQGTKLEIK
notes: as for B1
Kd [1]: < 1.5 nM
koff [1]: < 1e-05 s⁻¹
kon [1]: 6670 M⁻¹ s⁻¹
Kd [2]: 201 nM
koff [2]: 0.00764 s⁻¹
kon [2]: 38100 M⁻¹ s⁻¹

B6: toripalimab Fab H.V114Y (Fab, V domains shown)
VH: QGQLVQSGAEVKKPGASVKVSCKASGYTFTDYEMHWVRQAPIHGLEWIGVIESETGGTAYNQKFKGRVTITADKSTSTAYMELSSLRSEDTAVYYCAREGITTVATTYYWYFDYWGQGTTVTVSS
VL: DVVMTQSPLSLPVTLGQPASISCRSSQSIVHSNGNTYLEWYLQKPGQSPQLLIYKVSNRFSGVPDRFSGSGSGTDFTLKISRVEAEDVGVYYCFQGSHVPLTFGQGTKLEIK
notes: as for B1
Kd [1]: 1.23 nM
koff [1]: 2.39e-05 s⁻¹
kon [1]: 19400 M⁻¹ s⁻¹
Kd [2]: 235 nM
koff [2]: 0.00887 s⁻¹
kon [2]: 37800 M⁻¹ s⁻¹

B7: toripalimab Fab L.R24A (Fab, V domains shown)
VH: QGQLVQSGAEVKKPGASVKVSCKASGYTFTDYEMHWVRQAPIHGLEWIGVIESETGGTAYNQKFKGRVTITADKSTSTAYMELSSLRSEDTAVYYCAREGITTVATTYYWYFDVWGQGTTVTVSS
VL: DVVMTQSPLSLPVTLGQPASISCASSQSIVHSNGNTYLEWYLQKPGQSPQLLIYKVSNRFSGVPDRFSGSGSGTDFTLKISRVEAEDVGVYYCFQGSHVPLTFGQGTKLEIK
notes: as the heavy chain of Sm3; light chain of Sm3 with this change; numbers count from the chain's first residue; source: Brevibacillus, culture supernatant (ammonium sulfate precipitate); not shown: 6xHis, C-terminal, kept; 6xHN, C-terminal, kept
Kd [1]: < 0.696 nM
koff [1]: < 1e-05 s⁻¹
kon [1]: 14400 M⁻¹ s⁻¹
Kd [2]: 198 nM
koff [2]: 0.0079 s⁻¹
kon [2]: 39900 M⁻¹ s⁻¹

From publication PMC10663500, “High-throughput analysis system of interaction kinetics for data-driven antibody design” (Scientific Reports, 2023)
